Laboratory results as given in patent US9926369B2, “Methods for treating hepatocellular cancer by administering an anti-Ang-2 antibody” (Regeneron Pharmaceuticals, Inc., priority 2009, dated 2018).
Several values for one entry are separate records, joined by “and”; a condition that tells them apart may be missing. Identical values can stand only once.

Legend:
[1] = tested on: retinal superficial vasculature; experiment: Retinal vascularization in wild-type mice; format: in vivo; conditions: 12.5 mg/kg subcutaneous at P2, retina at P5
Description: In one set of experiments wild-type mice were used. In another set, mice expressing a human Ang-2 in place of the wild-type mouse Ang-2 (designated “hu-Ang-2 mice”) were used. The mice at two days of age (P2) were injected subcutaneously with either control Fc or with selected anti-Ang-2 antibodies at a dose of 12.5 mg/kg. Three days later (at P5), pups were euthanized, and eyeballs were enucleated and fixed in 4% PFA for 30 minutes. Retinas were dissected, stained with Griffonia simplicifolia lectin-1 for 3 hours or overnight at 4° C. to visualize the vasculature, and flat-mounted on microscope slides. Images were taken using a Nikon Eclipse 80i microscope camera and analyzed using Adobe Photoshop CS3, Fovea 4.0, and Scion 1.63 software.
Areas of the retina covered with superficial vasculature were measured and used as a readout of antibody activity. The reduction in the size of the vascular areas in mice treated with antibody compared to Fc-treated controls is presented in Table 34. The percent reduction in vascular area reflects the anti-angiogenic potency of the antibody. (N/D=not determined)

[2] = target: T1, hAng-2-WT (Homo sapiens, UniProt O15123); experiment: SPR binding to full-length wild-type human Ang-2 (preferential binding)
T1 construct: wild-type human Ang-2 (hAng-2-WT)
T1 sequence (O15123 19-496): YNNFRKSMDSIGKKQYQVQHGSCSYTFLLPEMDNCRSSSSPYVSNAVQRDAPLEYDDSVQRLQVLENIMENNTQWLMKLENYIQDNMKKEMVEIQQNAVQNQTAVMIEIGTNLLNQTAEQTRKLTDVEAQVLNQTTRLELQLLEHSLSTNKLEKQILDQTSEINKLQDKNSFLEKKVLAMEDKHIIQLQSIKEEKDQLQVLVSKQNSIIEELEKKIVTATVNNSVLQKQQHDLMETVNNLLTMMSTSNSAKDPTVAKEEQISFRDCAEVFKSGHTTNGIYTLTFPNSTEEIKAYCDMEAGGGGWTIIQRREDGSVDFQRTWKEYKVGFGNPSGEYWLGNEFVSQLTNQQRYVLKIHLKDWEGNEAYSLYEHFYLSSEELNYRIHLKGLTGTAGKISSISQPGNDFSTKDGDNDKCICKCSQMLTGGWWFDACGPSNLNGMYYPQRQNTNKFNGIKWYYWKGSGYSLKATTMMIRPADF
Description: Binding experiments (plasmon resonance assays) were conducted to ascertain whether selected antibodies bound to both Ang-2 and Ang-1 or if they preferentially bound to Ang-2 only. Each selected antibody or control construct was captured at a flow rate of 40 μL/min for 1 minute on a goat anti-human IgG polyclonal antibody surface created through direct chemical coupling to a BIACORE™ chip to form a captured antibody surface. Full-length wild-type human Ang-1 or Ang-2 at a concentration of 25 nM or 0.78 nM were injected over the captured antibody surface at a flowrate of 60 μL/min for 3 minutes, and antigen-antibody dissociation was monitored in real time for 20 minutes at either 25° C. or 37° C.

[3] = target: biotin-hBA2 binding to hTie-2 (Homo sapiens, UniProt O15123); experiment: ELISA blocking of biotinylated hBA2 binding to hTie-2-His; format: biochemical; conditions: antibodies cloned onto human IgG1; NB: no blocking observed at 5 nM concentration; read-out: Biotin - hBA2 IC50
Description: For this experiment, human Tie-2 conjugated to a histidine tag (hTie-2-His; SEQ ID NO:526) was used in a similar fashion to the hTie-2-mFc described above. Antibody concentrations from 5 nM were serially diluted three-fold. […] An average IC50 value for each antibody was calculated based on two separate experiments.

[4] = target: WT Ang-2FD-mFc construct (Homo sapiens, UniProt O15123); experiment: Ang-2FD-mFc point mutant binding experiment (SPR), wild-type; conditions: WT hAng-2FD-mFc captured; antibody/peptibody at 100 nM; 25° C.
Source text: To further characterize binding between hAng2 and anti-hAng2 mAbs of the invention, seven variant hAng2-FD-mFc proteins were generated, each containing a single point mutation. Amino acids selected for mutation were based on the difference in sequence between hAng-2 and hAng-1 in the region that interacts with hTie-2 (FIG. 1). In particular, amino acids within the fibrinogen-like domain (FD) of Ang-2 which are believed to interact with Tie-2 based on crystal structure analysis, but which differ from the corresponding amino acid in Ang-1, were individually mutated to the corresponding hAng-1 residue. The results of this example indicate the amino acid residues of hAng-2 with which the Ang-2 preferential binding antibodies interact.
In this experiment, each of the seven hAng-2FD-mFc mutant proteins were captured (˜147-283 RU) on an anti-mouse-Fc surface created through direct chemical coupling to a BIACORE™ chip. Then each Ang-2 antibody (or peptibody, as the case may be) at 100 nM was injected over the captured mFc-tagged hAng-2FD protein surface at a flowrate of 50 μl/min for 180 sec, and the dissociation of variant hAng2-FD-mFc and antibody was monitored in real time for 20 min at 25° C.

WT Ang-2FD-mFc construct, sequence (O15123 with tags, fused parts or gaps): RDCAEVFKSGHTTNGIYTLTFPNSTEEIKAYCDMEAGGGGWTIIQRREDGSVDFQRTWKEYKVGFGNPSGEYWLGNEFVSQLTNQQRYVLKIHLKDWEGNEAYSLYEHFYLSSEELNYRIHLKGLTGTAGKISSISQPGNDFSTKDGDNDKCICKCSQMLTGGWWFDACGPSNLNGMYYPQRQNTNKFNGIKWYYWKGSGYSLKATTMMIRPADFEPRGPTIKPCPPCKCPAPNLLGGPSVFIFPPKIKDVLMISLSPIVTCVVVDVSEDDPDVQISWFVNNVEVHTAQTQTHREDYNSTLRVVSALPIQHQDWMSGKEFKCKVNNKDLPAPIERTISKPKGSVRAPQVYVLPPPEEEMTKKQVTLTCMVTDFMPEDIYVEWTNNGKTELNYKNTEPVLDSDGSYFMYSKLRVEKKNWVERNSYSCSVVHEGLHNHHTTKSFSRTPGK
biotin-hBA2 binding to hTie-2, sequence (O15123 with tags, fused parts or gaps): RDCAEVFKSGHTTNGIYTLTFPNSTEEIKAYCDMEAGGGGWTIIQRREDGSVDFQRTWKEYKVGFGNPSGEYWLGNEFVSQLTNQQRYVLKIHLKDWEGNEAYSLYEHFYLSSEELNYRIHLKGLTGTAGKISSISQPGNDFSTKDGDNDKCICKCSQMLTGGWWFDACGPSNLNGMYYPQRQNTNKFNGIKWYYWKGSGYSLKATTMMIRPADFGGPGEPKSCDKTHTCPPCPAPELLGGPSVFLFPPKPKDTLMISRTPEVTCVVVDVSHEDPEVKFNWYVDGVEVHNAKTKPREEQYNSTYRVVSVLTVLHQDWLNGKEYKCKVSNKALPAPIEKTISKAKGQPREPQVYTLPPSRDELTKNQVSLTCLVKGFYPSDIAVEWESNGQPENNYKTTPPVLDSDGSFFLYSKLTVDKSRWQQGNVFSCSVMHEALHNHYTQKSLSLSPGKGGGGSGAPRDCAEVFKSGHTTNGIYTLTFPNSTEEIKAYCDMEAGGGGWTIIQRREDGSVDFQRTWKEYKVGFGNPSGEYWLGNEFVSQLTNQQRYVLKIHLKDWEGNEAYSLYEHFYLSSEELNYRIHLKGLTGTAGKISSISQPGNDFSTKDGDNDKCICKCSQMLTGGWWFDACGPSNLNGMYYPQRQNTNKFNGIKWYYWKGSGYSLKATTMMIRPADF

For “H1H685P: human anti-Ang-2 antibody, HCVR/LCVR SEQ ID NOs 18/20; also referred to as mAb1 [Antibody H1H685P]”, the “% Reduction in Vascular Area Relative to Fc Control, Wild-Type Mice” value [1] was 39.7%, the “kd, binding to hAng-2-WT” value ([2]; 25° C.) was 1.6e-05 s⁻¹ and 8.5e-06 s⁻¹ and the “kd, binding to hAng-2-WT” value ([2]; 37° C.) was 3.76e-05 s⁻¹ and 2.16e-05 s⁻¹. For the same substance, the IC50 [3] was 20 pM, the Kd [4] was 22.3 pM and the RU [4] was 210.70 RU.
